{"source": "patent US8541376B2", "about": "“Composition comprising and method of using angiopoietin-like protein 3 ANGPTL3” (Genentech, Inc., priority 2001, dated 2013)", "key": {"[1]": {"system": "HMVEC", "assay": "endothelial cell adhesion assay on Angptl3-coated plates", "assay_type": "cell-based, human", "procedure": "(§1) In order to identify potential integrins binding to Angptl3, recombinant Angptl3 proteins were coated onto 96-well flat-bottomed microtiter plates (MaxiSorp, Nunc, Denmark) overnight at 4° C. and blocked with 100 μg/ml BSA in PBS for 1 hour at 37° C. Various 293 cell lines stably transfected with different integrin heterodimers, including IIbIIIa (αIIBβ3), αvβ3, αvβ1 and αvβ5, were tested for their ability to bind Angptl3 coated plates. Cells were harvested and diluted to 10^5 cells/ml in serum-free CS-C medium containing 1% BSA, 1 mM CaCl2 and 1 mM MgCl2. Cells were preincubated with or without blocking antibodies or peptides for 15 minutes at 37° C. and then stimulated with 200 nM PMA. Cell suspensions (10^4 cells/well) were added to the coated wells and the plates were incubated at 37° C. for selected times. Non-adherent cells were removed by PBS washes and cell attachment was measured using the PNAG method of Lanndegren (Landegren, U., J. Immunol. Methods, 67:379-388 (1984)). Results are expressed at mean OD405 values of triplicate wells.\nTo determine whether the αvβ3 integrin was sufficient to mediate Angptl3 cell adhesion, blocking antibodies or inhibitory peptides were tested for their ability to inhibit the adhesion in the cell adhesion assay. Function blocking antibodies were added to the endothelial cells prior to incubation with the Angptl3-coated wells. […]"}, "[2]": {"system": "Human microvascular endothelial cells (HMVECs)", "assay": "FACS binding of gD-tagged ligands in conditioned media to endothelial cells", "details": "for binding to HMVEC: conditioned media from transfected 293 cells, gD-tagged ligands, FACS", "procedure": "Because of the structural similarities between Angptl3 and angiopoietins, Angptl3 was tested for the ability to bind, in culture, to primary endothelial cells expressing the Tie2 receptor. Human microvascular endothelial cells (HMVECs), purchased from Cell System (Kirkland, Wash.), maintained in CS-C complete medium containing 10% fetal bovine serum and mitogens according to the recommendations by the supplier, were incubated with conditioned media from transiently transfected 293 cells expressing epitope (gD)-tagged versions of Tie2 ligands angiopoietin 1 and 2 (Ang1 and Ang2), Angptl3, and angiopoietin related protein 1 (ARP1), respectively. ARP1 is a structurally related molecule, consisting of a coiled-coil and a fibrinogen-like domain but unable to bind Tie2, and was used as a negative control."}, "[3]": {"biological_target": "T1, Tie2 receptor (Homo sapiens, UniProt Q02763)", "T1 construct": "in conjunction with full length receptor constructs for Tie1 and Tie2, respectively; expressed in transfected cells; host or cells: 293 cells (transient transfection)", "T1 sequence (Q02763 23-1124)": "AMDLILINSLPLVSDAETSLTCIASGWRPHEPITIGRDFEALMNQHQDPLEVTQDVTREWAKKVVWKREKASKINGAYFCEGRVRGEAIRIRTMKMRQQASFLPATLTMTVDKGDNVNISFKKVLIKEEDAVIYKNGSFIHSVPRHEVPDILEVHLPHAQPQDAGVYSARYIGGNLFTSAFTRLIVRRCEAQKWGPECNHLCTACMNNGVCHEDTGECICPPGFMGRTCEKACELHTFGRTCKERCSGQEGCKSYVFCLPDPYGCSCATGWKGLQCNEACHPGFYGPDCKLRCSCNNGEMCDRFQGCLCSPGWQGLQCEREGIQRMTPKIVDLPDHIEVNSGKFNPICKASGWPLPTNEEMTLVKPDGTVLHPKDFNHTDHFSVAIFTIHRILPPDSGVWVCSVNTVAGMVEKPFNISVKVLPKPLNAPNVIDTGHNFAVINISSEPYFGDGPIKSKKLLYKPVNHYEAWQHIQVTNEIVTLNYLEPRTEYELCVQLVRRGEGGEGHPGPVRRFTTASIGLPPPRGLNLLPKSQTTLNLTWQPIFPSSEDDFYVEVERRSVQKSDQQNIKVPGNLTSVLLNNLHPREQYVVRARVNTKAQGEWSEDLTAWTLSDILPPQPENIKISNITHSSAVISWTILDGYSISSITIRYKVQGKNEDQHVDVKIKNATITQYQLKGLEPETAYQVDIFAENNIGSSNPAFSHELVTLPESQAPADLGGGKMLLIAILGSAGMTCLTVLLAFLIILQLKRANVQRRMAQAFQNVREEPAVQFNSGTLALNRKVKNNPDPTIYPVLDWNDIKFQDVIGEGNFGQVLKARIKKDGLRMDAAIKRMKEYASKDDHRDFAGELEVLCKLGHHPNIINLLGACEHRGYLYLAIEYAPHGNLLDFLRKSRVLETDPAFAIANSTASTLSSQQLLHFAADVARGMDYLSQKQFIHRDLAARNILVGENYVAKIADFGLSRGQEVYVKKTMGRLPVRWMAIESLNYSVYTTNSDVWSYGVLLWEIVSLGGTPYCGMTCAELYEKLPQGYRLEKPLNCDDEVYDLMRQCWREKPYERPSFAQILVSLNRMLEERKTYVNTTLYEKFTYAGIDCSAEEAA", "assay": "co-immunoprecipitation in cotransfected 293 cells", "assay_type": "binding", "details": "immunoprecipitation with anti-Tie2, anti-gD blot", "procedure": "(§2) To test whether Tie2, the receptor for angiopoetins 1, 2 and 3 (Ang1, Ang2, and Ang3), or Tie1, an orphan receptor with high sequence homology to Tie2, bind to Angptl3, immunoprecipitation experiments were conducted using 293 cells transiently with expression vectors for epitope (gD)-tagged versions of Ang1 and Ang2, Angptl3 and ARP1 in conjunction with full length receptor constructs for Tie1 and Tie2, respectively. Whole cell extracts were prepared by lysis in RIPA buffer (1×PBS; 1% NP40; 0.5% sodium deoxycholate; 0.1% SDS; PMSF, 100 μg/ml; Aprotinin, 30 μl/ml; sodium orthovanadate, 1 μM) containing freshly added protease inhibitors. Extract was incubated with antibodies specific for Tie1 or Tie2 (Santa Cruz Biotechnology, San Diego, Calif.) and the resulting immunoprecipitate was analyzed by SDS-PAGE and immunoblotting. Specifically, proteins resolved by SDS-PAGE and blotted to PVDF membrane were incubated with antibodies against the gD tag or the Tie receptors, respectively."}, "[4]": {"biological_target": "LFA1 (Homo sapiens, UniProt P05107+P20701)", "sequence (P20701 26-1170)": "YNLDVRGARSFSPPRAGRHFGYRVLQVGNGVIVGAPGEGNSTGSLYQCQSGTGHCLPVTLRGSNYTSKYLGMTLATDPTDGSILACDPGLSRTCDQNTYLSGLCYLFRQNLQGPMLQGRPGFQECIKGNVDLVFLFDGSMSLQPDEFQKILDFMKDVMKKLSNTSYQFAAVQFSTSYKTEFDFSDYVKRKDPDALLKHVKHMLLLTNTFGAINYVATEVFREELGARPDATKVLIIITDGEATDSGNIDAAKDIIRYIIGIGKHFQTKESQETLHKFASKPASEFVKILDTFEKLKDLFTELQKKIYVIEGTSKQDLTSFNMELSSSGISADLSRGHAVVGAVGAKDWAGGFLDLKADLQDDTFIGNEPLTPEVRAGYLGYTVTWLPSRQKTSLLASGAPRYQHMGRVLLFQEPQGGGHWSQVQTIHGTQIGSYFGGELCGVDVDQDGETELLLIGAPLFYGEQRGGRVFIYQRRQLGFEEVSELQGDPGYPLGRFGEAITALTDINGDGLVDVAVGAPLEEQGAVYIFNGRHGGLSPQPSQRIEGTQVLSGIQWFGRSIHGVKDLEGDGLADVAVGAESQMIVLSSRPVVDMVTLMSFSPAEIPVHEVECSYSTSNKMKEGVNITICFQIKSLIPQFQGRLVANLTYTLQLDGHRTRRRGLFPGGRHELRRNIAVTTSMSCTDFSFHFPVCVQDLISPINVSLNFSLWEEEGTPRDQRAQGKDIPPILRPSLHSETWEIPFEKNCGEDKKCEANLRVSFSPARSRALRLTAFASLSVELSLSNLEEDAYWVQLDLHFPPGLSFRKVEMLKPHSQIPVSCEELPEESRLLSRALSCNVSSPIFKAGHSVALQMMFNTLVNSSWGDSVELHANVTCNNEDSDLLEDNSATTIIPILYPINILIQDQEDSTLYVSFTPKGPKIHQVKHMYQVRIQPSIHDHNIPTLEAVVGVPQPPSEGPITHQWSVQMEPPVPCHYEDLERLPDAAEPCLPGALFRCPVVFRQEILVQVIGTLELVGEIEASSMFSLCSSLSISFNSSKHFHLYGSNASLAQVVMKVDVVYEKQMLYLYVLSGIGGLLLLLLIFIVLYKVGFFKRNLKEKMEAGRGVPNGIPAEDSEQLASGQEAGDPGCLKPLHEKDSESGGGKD", "sequence (P05107 23-769)": "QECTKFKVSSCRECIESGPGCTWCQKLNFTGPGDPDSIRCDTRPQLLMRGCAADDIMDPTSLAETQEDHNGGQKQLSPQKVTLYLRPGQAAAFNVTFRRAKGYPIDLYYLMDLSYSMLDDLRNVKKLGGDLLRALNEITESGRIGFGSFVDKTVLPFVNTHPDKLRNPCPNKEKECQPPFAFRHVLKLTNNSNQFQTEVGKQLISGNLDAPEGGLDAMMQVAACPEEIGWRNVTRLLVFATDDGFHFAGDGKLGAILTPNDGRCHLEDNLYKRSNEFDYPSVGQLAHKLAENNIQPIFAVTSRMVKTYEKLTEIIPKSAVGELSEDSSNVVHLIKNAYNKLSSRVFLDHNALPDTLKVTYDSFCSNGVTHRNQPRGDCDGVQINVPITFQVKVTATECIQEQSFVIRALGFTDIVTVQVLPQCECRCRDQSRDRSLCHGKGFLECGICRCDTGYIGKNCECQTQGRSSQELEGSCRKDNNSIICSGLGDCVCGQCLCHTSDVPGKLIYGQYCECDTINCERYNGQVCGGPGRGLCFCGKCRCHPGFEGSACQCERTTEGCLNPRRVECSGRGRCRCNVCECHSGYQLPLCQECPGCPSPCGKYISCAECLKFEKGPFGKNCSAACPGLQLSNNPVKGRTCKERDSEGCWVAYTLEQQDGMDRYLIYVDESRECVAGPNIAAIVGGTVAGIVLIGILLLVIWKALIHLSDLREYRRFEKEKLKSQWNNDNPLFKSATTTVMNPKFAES", "details": "ELISA in vitro (Camenisch et al., 2002); cited from earlier work"}, "[5]": {"biological_target": "T2, Tie1 receptor (Homo sapiens, UniProt P35590)", "T2 construct": "in conjunction with full length receptor constructs for Tie1 and Tie2, respectively; expressed in transfected cells; host or cells: 293 cells (transient transfection)", "T2 sequence (P35590 22-1138)": "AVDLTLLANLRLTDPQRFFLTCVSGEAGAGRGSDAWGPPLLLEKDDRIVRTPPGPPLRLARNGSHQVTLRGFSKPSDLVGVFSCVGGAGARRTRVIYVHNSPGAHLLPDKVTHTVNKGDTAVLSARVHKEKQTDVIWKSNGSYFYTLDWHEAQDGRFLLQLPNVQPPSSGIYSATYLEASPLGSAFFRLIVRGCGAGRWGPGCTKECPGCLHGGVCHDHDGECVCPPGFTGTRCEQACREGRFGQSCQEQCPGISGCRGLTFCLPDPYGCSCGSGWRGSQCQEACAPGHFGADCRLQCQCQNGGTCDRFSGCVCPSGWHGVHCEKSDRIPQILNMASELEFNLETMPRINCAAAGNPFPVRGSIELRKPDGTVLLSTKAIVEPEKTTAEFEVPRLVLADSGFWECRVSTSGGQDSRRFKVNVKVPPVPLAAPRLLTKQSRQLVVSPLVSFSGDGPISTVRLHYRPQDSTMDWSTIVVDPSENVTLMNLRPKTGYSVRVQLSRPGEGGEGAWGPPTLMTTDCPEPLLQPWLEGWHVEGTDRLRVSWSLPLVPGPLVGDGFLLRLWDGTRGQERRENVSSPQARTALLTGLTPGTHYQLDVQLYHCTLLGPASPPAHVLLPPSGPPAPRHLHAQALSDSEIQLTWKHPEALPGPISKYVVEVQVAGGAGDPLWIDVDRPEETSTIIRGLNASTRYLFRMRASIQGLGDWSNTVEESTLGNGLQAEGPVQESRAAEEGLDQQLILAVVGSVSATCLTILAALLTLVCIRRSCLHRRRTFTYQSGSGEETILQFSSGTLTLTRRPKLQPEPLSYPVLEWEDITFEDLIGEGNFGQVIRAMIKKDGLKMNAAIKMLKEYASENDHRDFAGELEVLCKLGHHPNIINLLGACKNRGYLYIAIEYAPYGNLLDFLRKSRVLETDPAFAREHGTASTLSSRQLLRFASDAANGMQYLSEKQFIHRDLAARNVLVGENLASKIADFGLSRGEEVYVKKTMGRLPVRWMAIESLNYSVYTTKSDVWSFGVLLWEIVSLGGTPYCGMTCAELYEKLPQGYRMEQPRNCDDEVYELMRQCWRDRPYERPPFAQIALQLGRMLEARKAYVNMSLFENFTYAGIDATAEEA", "assay": "co-immunoprecipitation in cotransfected 293 cells", "assay_type": "binding", "details": "immunoprecipitation with anti-Tie1, anti-gD blot", "procedure": "as §2"}, "[6]": {"system": "rat cornea", "assay": "rat cornea in vivo angiogenesis assay", "details": "for angiogenic response compared to levels obtained for VEGF: Angptl3 500 ng vs VEGF 100 ng", "procedure": "In order to test whether Angptl3 was capable to induce an in vivo angiogenic response in the rat cornea, […] pellets containing murine and human Angptl3 (500 ng) as well as human VEGF (100 ng) were implanted separately or in combination as described previously (Xin et al., J. Biol. Chem., 274:[…] (1999)). Hydron pellets containing excipient (control, murine or human Angptl3 (500 ng), VEGF (100 ng), or the combination of murine or human Angptl3 (500 ng) and VEGF (100 ng) were implanted into the corneas of 250 to 300 g male Sprague-Dawley rates. All hydron pellets contained 100 ng of sucralfate. […] Corneal whole mounts were made of the enucleated eyes and analyzed for neovascular areas using a computer-assisted image analysis (Image Pro-Plus 2.0, Silver Spring, Md.). In contrast to previous reports focusing on the effects of angiopoietin 1 and 2 when tested in the corneal angiogenesis assay (Asahara et al., Circ. […] These findings might reflect the interdependent signal transduction pathways engaged by both ligands (Byzova et al., Mol. Cell. 6:852-60 (2000))."}, "[7]": {"biological_target": "Mac-1 (Homo sapiens, UniProt P05107+P11215)", "sequence (P05107 23-769, other chains not shown)": "as the sequence (P05107 23-769) above", "details": "ELISA in vitro (Camenisch et al., 2002); cited from earlier work"}, "[8]": {"system": "freshly isolated murine hepatocytes", "assay": "cell adhesion on protein-coated plates, hepatocytes", "assay_type": "cell-based, mouse", "details": "dishes coated with recombinant mAngptl3 (FIG. 13 legend), 200 nM PMA", "procedure": "96-well flat-bottomed plates (MaxiSorp, Nunc, Denmark) were coated overnight at 4° C. with the indicated concentrations of proteins and blocked with 3% BSA in PBS for 1 hour at 37° C. Primary human dermal endothelial cells (HMVECs) and freshly isolated murine hepatocytes that were prepared from the livers of adult C57/B16 mice using the method described in LeCouter et al (LeCouter et al., 2001) were harvested and diluted to 10^5 cells/ml in serum-free CS-C medium containing 1% BSA, 1 mM CaCl2 and 1 mM MgCl2 in the presence of 200 nM PMA. […] Cell suspensions (10^4 cells/well) were added to the coated wells and the plates were incubated at 37° C. for selected times. Non-adherent cells were removed by PBS washes and cell attachment was measured using the PNAG method of Landegren (Landegren, 1984). Results were expressed at mean OD405 values of triplicate wells."}, "[9]": {"biological_target": "T3, αvβ3 integrin (Homo sapiens, UniProt P05106+P06756)", "T3 construct": "expressed in transfected cells", "assay": "adhesion of integrin-transfected 293 cell lines to Angptl3-coated plates", "assay_type": "cell-based", "details": "plates coated with 20 μg/ml hAngptl3, 4 hours; compared to cell lines expressing αIIbβ3, αvβ1, αvβ5", "procedure": "as §1"}}}
{"molecule": "O=C(O)CN(CCN(CC(=O)O)CC(=O)O)CC(=O)O", "note": "[EDTA, reference compound]", "values": [{"measurement": "effect of EDTA on endothelial cell adhesion to Angptl3", "setting": "[1]; EDTA 10 mM", "value": "completely abolished"}]}
{"molecule": "Ang2: epitope (gD)-tagged Tie2 ligand angiopoietin 2 [reference compound]", "values": [{"measurement": "binding to HMVEC", "setting": "[2]", "value": "strongly bound"}, {"measurement": "binding to Tie2", "setting": "[3]", "value": "Tie2 binding"}]}
{"molecule": "Angptl3: angiopoietin-like protein 3, native human sequence SEQ ID NO: 2; recombinant gD-tagged secreted glycoprotein (protein, listed as Homo sapiens, gD tag, recombinant gD-tagged secreted glycoprotein) MFTIKLLLFIVPLVISSRIDQDNSSFDSLSPEPKSRFAMLDDVKILANGLLQLGHGLKDFVHKTKGQINDIFQKLNIFDQSFYDLSLQTSEIKEEEKELRRTTYKLQVKNEEVKNMSLELNSKLESLLEEKILLQQKVKYLEEQLTNLIQNQPETPEHPEVTSLKTFVEKQDNSIKDLLQTVEDQYKQLNQQHSQIKEIENQLRRTSIQEPTEISLSSKPRAPRTTPFLQLNEIRNVKHDGIPAECTTIYNRGEHTSGMYAIRPSNSQVFHVYCDVISGSPWTLIQHRIDGSQNFNETWENYKYGFGRLDGEFWLGLEKIYSIVKQSNYVLRIELEDWKDNKHYIEYSFYLGNHETNYTLHLVAITGNVPNAIPENKDLVFSTWDHKAKGHFNCPEGYSGGWWWHDECGENNLNGKYNKPRAKSKPERRRGLSWKSQNGRLYSIKSTKMLIHPTDSESFE", "values": [{"measurement": "binding to LFA1", "setting": "[4]", "value": "did not bind"}, {"measurement": "induction of endothelial cell adhesion", "setting": "[1]; increasing coating amounts of hAngptl3, within 4 hours", "value": "robust, dose-dependent adhesion"}, {"measurement": "binding to HMVEC after exposure of cells to hypoxia or VEGF", "setting": "[2]; cells exposed to hypoxia or VEGF, data not shown", "value": "significantly increased"}, {"measurement": "binding to HMVEC", "setting": "[2]", "value": "strongly bound"}, {"measurement": "binding to Tie1", "setting": "[5]", "value": "did not bind"}, {"measurement": "binding to Tie2", "setting": "[3]", "value": "did not bind"}, {"measurement": "in vivo angiogenic response in rat cornea", "setting": "[6]; 500 ng in hydron pellet, alone, 5 days after pellet implantation", "value": "strong angiogenic response"}, {"measurement": "angiogenic response compared to levels obtained for VEGF", "setting": "[6]", "value": "comparable"}, {"measurement": "binding to Mac-1", "setting": "[7]", "value": "did not bind"}, {"measurement": "hepatocyte adhesion", "setting": "[8]", "value": "Coating-concentration dependent"}, {"measurement": "adherence of 293 cells expressing αvβ3 to Angptl3", "setting": "[9]", "value": "marked increased"}]}
{"molecule": "ARP1: angiopoietin related protein 1, unable to bind Tie2, negative control (protein, UniProt O95841 24-491, looked up) Angiopoietin-related protein 1: GQFKIKKINQRRYPRATDGKEEAKKCAYTFLVPEQRITGPICVNTKGQDASTIKDMITRMDLENLKDVLSRQKREIDVLQLVVDVDGNIVNEVKLLRKESRNMNSRVTQLYMQLLHEIIRKRDNSLELSQLENKILNVTTEMLKMATRYRELEVKYASLTDLVNNQSVMITLLEEQCLRIFSRQDTHVSPPLVQVVPQHIPNSQQYTPGLLGGNEIQRDPGYPRDLMPPPDLATSPTKSPFKIPPVTFINEGPFKDCQQAKEAGHSVSGIYMIKPENSNGPMQLWCENSLDPGGWTVIQKRTDGSVNFFRNWENYKKGFGNIDGEYWLGLENIYMLSNQDNYKLLIELEDWSDKKVYAEYSSFRLEPESEFYRLRLGTYQGNAGDSMMWHNGKQFTTLDRDKDMYAGNCAHFHKGGWWYNACAHSNLNGVWYRGGHYRSKHQDGIFWAEYRGGSYSLRAVQMMIKPID", "values": [{"measurement": "binding to HMVEC", "setting": "[2]", "value": "no binding was observed"}]}
{"molecule": "Ang1: epitope (gD)-tagged Tie2 ligand angiopoietin 1 (protein, listed as Homo sapiens, gD epitope tag) RDCADVYQAGFNKSGIYTIYINNMPEPKKVFCNMDVNGGGWTVIQHREDGSLDFQRGWKEYKMGFGNPSGEYWLGNEFIFAITSQRQYMLRIELMDWEGNRAYSQYDRFHIGNEKQNYRLYLKGHTGTAGKQSSLILHGADFSTKDADNDNCMCKCALMLTGGWWFDACGPSNLNGMFYTAGQNHGKLNGIKWHYFKGPSYSLRSTTMMIRPLDF", "values": [{"measurement": "binding to Tie2", "setting": "[3]", "value": "Tie2 binding"}]}
{"molecule": "murine Angptl3: recombinant mouse Angptl3 overexpressed in CHO cells (protein, UniProt Q9R182 17-455, looked up) Angiopoietin-related protein 3: SRVDPDLSSFDSAPSEPKSRFAMLDDVKILANGLLQLGHGLKDFVHKTKGQINDIFQKLNIFDQSFYDLSLRTNEIKEEEKELRRTTSTLQVKNEEVKNMSVELNSKLESLLEEKTALQHKVRALEEQLTNLILSPAGAQEHPEVTSLKSFVEQQDNSIRELLQSVEEQYKQLSQQHMQIKEIEKQLRKTGIQEPSENSLSSKSRAPRTTPPLQLNETENTEQDDLPADCSAVYNRGEHTSGVYTIKPRNSQGFNVYCDTQSGSPWTLIQHRKDGSQDFNETWENYEKGFGRLDGEFWLGLEKIYAIVQQSNYILRLELQDWKDSKHYVEYSFHLGSHETNYTLHVAEIAGNIPGALPEHTDLMFSTWNHRAKGQLYCPESYSGGWWWNDICGENNLNGKYNKPRTKSRPERRRGIYWRPQSRKLYAIKSSKMMLQPTT", "values": [{"measurement": "potency in inducing angiogenesis compared to the recombinant human protein", "setting": "[6]; 500 ng each", "value": "slightly more potent"}, {"measurement": "angiogenic response compared to levels obtained for VEGF", "setting": "[6]", "value": "comparable"}]}
